Like-named read-outs stand apart in the source and are kept apart here.
What was measured:
Rep68ΔN209 = molecular target: T1, Rep68ΔN209 (Adeno-associated virus 2 Srivastava/1982, UniProt P03132); type: binding; settings: 36 µM protein, 200 mM NaCl, pH 8.0, 20 °C
T1 construct: gene Rep68; residues 210-536, part of linker plus helicase domain; pET-15b, E. coli BL21(DE3)

Rep68ΔN200 = molecular target: T2, Rep68ΔN200 (Adeno-associated virus 2 Srivastava/1982, UniProt P03132); type: binding; settings: 36 µM protein, 200 mM NaCl, pH 8.0, 20 °C
T2 construct: gene Rep68; Rep68 without the OBD: full interdomain linker plus helicase domain, to residue 536; start 201 read from the name; pET-15b, E. coli BL21(DE3); also printed Rep68Δ200, RepΔN200

[1] = molecular target: Rep68ΔN214 (adeno-associated virus 2 (AAV-2)) (UniProt P03132); experiment: AUC
[2] = molecular target: Rep68ΔN209 (adeno-associated virus 2 (AAV-2)) (UniProt P03132); experiment: AUC
[3] = molecular target: Rep68Y224A (adeno-associated virus 2 (AAV-2)) (UniProt P03132); experiment: AUC
[4] = molecular target: OBD-linker (residues 1-224) of AAV-2 Rep68 (adeno-associated virus 2 (AAV-2)) (UniProt P03132); experiment: AUC; sedimentation velocity without nucleotide, 40,000 rpm, 20°C, 25 mM Tris-HCl pH 8.0, 200 mM NaCl, 2 mM TCEP; c(s) by sedfit; constants from a global fit (sedphat) to a monomer-dimer model: dimer to monomers
[5] = molecular target: Rep68ΔN200 (adeno-associated virus 2 (AAV-2)) (UniProt P03132); experiment: cross-linking; DMP (dimethyl pimelimidate), 30 fold molar excess, 60 min at room temperature, protein 2 mg/ml, 25 mM HEPES, 200 mM NaCl, pH 8.0; 8% SDS-PAGE
[6] = molecular target: Rep68ΔN200 (adeno-associated virus 2 (AAV-2)) (UniProt P03132); experiment: AUC; sedimentation velocity without nucleotide, 40,000 rpm, 20°C, 25 mM Tris-HCl pH 8.0, 200 mM NaCl, 2 mM TCEP; c(s) by sedfit; constants from a global fit (sedphat) to a monomer-dimer model: dimer to monomers
[7] = molecular target: Rep68ΔN200 (adeno-associated virus 2 (AAV-2)) (UniProt P03132); experiment: AUC
AAV-2 Rep40 [8] = molecular target: T3, AAV-2 Rep40 (adeno-associated virus 2 (AAV-2), UniProt P03132 225-536); experiment: AUC; sedimentation velocity without nucleotide, 40,000 rpm, 20°C, 25 mM Tris-HCl pH 8.0, 200 mM NaCl, 2 mM TCEP; c(s) by sedfit; constants from a global fit (sedphat) to a monomer-dimer model: dimer to monomers; settings: both partners purified
AAV-2 Rep40 [9] = molecular target: T3, AAV-2 Rep40; experiment: as above; settings: both partners purified; remark: listed apart in the source

With `Nc1ncnc2c1ncn2[C@@H]1O[C@H](COP(=O)(O)OP(=O)(O)OP(=O)(O)O)[C@@H](O)[C@H]1O` [ATP] the “sedimentation velocity ultracentrifugation, nucleotide-induced oligomerization” value (Rep68ΔN209; 5 mM ATP) was “ATP on the other hand, seems to generate more stable species at ∼7S” and the “sedimentation velocity ultracentrifugation, nucleotide-induced oligomerization” value (Rep68ΔN200; 5 mM ATP) was “ATP on the other hand, seems to generate more stable species at ∼7S”.

With “Rep68ΔN214 (from UniProt P03132 215-536) (domain or fragment)” the stoichiometry N [1] was 2.

Work on “Rep68ΔN209 (from UniProt P03132 210-536) (domain or fragment)” yielded a stoichiometry N [2] of 2.

With “Rep68Y224A (from UniProt P03132 1-536) (natural protein)” the stoichiometry N [3] was 2.

“OBD-linker (residues 1-224) of AAV-2 Rep68 (from UniProt P03132 1-224) (domain or fragment)” showed a stoichiometry N [4] of 2.

`Nc1ncnc2c1ncn2[C@@H]1O[C@H](COP(=O)(O)OP(=O)(O)O)[C@@H](O)[C@H]1O` [ADP] was tested, and the “sedimentation velocity ultracentrifugation, nucleotide-induced oligomerization” value (Rep68ΔN209; 5 mM ADP) was “ADP produces two main populations sedimenting at ∼3S and ∼7S” and the “sedimentation velocity ultracentrifugation, nucleotide-induced oligomerization” value (Rep68ΔN200; 5 mM ADP) was “ADP produces two main populations sedimenting at ∼3S and ∼7S”.

In the case of “Rep68ΔN200 (from UniProt P03132 201-536) (domain or fragment)”, the stoichiometry N [5] is reported as 2, the Kd [6] is reported as 79 µM and the logKa [6] is reported as 4.1. The stoichiometry N [6] was 2 and the stoichiometry N [7] was 2.

B1: AAV-2 Rep40 (natural protein)
chain: MELVGWLVDKGITSEKQWIQEDQASYISFNAASNSRSQIKAALDNAGKIMSLTKTAPDYLVGQQPVEDISSNRIYKILELNGYDPQYAASVFLGWATKKFGKRNTIWLFGPATTGKTNIAEAIAHTVPFYGCVNWTNENFPFNDCVDKMVIWWEEGKMTAKVVESAKAILGGSKVRVDQKCKSSAQIDPTPVIVTSNTNMCAVIDGNSTTFEHQQPLQDRMFKFELTRRLDHDFGKVTKQEVKDFFRWAKDHVVEVEHEFYVKKGGAKKRPAPSDADISEPKRVRESVAQPSTSDAEASINYADRLARGHSL
modifications: Start at 225 follows from the text; the C-terminus of the assayed Rep40 is not given, so full-length Rep40 (to 536) is taken; 225-490 is given only for the crystal structure 1S9H. ATP or ADP added …
In the case of B1, the Kd (AAV-2 Rep40 [8]) is reported as 730 µM and the “stoichiometry N” value (AAV-2 Rep40 [9]) is reported as 2.

Reference: publication PMC3375335, “The Interdomain Linker of AAV-2 Rep68 Is an Integral Part of Its Oligomerization Domain: Role of a Conserved SF3 Helicase Residue in Oligomerization” (PLoS Pathogens, 2012)
